Experimental data: US7071299B2, “Peptide and polypeptide inhibitors of complement C1s” (ZymoGenetics, Inc., priority 2000, dated 2006)
Values joined by “and” are separate entries in the source; they are usually repeats but may differ in a detail not shown here. Identical values can stand only once.

Target: T1, Activated human C1s (Homo sapiens, UniProt P09871)
T1 construct: purchased Calbiochem-Novabiochem Corporation; San Diego, Calif
T1 sequence (P09871 16-437 limits assumed): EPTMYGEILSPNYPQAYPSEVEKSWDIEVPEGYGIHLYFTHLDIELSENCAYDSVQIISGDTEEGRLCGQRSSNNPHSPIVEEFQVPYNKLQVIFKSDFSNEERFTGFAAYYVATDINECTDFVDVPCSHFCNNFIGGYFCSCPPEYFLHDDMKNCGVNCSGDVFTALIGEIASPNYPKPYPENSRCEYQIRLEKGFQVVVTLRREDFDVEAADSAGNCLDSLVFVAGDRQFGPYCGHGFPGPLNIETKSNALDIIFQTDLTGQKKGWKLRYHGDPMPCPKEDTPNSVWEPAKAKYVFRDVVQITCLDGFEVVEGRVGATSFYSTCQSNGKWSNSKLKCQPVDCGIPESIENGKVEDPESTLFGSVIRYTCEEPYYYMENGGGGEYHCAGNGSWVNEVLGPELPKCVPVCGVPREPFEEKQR
T1 sequence (P09871 438-688 limits assumed): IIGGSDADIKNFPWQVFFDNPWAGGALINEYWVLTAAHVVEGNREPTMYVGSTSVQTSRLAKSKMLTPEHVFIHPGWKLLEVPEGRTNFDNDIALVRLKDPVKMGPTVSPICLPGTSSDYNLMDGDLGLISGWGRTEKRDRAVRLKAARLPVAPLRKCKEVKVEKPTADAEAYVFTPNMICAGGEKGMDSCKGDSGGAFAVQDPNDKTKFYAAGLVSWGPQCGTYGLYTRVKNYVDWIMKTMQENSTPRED
Assay: C1s enzyme assay (chromogenic substrate Pefa-C1E, decrease in Vmax)
Format: biochemical
Conditions: Table 6, effect of posttranslational modifications on BD001 activity
Protocol: C1s enzyme assays were performed in 96 well plates preincubated in the assay buffer for 30 minutes at room temperature. Activated human C1s (Calbiochem-Novabiochem Corporation; San Diego, Calif.); final assay concentration: 1.25 μg/ml), was incubated with samples in 50 mM Tris-HCl (pH 8) that contained 116 mM sodium chloride and 0.05% Polysorbate 80. The chromogenic substrate, Pefa-C1E (Centerchem, Inc.; Stamford, Conn.; final assay concentration: 0.4 mM), was added to the assay wells and the plate was read at 405 nm, 37° C., for 30 minutes at 20 second intervals on a SPECTRAmax PLUS plate reader (Molecular Devices Corporation; Sunnyvale, Calif.). Inhibition was determined as a decrease in Vmax, which is calculated as the maximum Δ milli-absorbance units/min over the assay period.
Three types of post-translational modifications have been identified in BD001: (1) glycosylation at Asn^23 consisting of a fucosylated complex-type core; (2) sulfation of at least one of Tyr^117, Tyr^119, and Tyr^121; and (3) proteolytic cleavage after Arg^65. The first two modifications have been identified in native BD001 as well as recombinant BD001 expressed in Baculovirus. The third modification is seen in a fraction of the recombinant BD001 expressed in Baculovirus. […] The identity of each species was verified using mass spectroscopy, and protein concentrations were measured using absorbance at 280 nm. […]

B1: BD001 isolated from tissue: native leech protein BD001 (SEQ ID NO:1) isolated from the salivary complexes of the leech; inhibits C1s (protein, listed as Haementaria ghilianii)
chain: AKKKLPKCQKQEDCGSWDLKCNNVTKKCECRNQVCGRGCPKERYQRDKYGCRKCLCKGCDGFKCRLGCTYGFKTDKKGCEAFCTCNTKETACVNIWCTDPYKCNPESGRCEDPNEEYEYDYE
modifications: native, isolated from leech
For B1, the IC50 was 4 nM and 4.7 nM.
